Here are results for four substances from publication PMC3605307.

Experiment [1] has as its target Human CD155-Fc fusion protein (human) (UniProt P15151). The experiment is described as follows: SPR. (In general: Surface plasmon resonance follows binding to a sensor surface in real time, without labels.)
Experiment [2] deals with Recombinant UL141 ectodomain (soluble, released from the Fc fusion) (human cytomegalovirus (HCMV), FIX strain) (UniProt Q6RJQ3). The experiment is described as follows: SEC; size-exclusion elution profiles of the purified proteins against marker proteins. (In general: In gel filtration, larger molecules generally elute earlier.)
Experiment [3] deals with TRAIL-R1-Fc fusion protein (UniProt O00220). As to the kind of experiment: SPR.
Chain of TRAIL-R1-Fc fusion protein (O00220 24-239): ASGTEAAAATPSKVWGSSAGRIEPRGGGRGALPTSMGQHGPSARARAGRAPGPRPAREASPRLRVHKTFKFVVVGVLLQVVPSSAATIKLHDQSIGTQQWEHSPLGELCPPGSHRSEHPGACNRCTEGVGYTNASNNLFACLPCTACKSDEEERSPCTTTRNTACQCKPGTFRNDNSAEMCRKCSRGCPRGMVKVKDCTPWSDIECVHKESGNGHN
Experiment [4] deals with Human TRAIL-R2-Fc V167A (human) (UniProt O14763). The experiment is described as follows: SPR.
The target in experiment [5] is Human TRAIL-R2-Fc F112A (human) (UniProt O14763). The experiment is described as follows: SPR.
Experiment [6] concerns the target Human TRAIL-R2-Fc D109A together with E78A (human) (UniProt O14763). As to the kind of experiment: SPR.
Experiment [7] addresses Human TRAIL-R2-Fc double mutation L110A and L114A (human) (UniProt O14763). The experiment is described as follows: SPR.
The target in experiment [8] is Human TRAIL-R2-Fc fusion protein (wild type) (human) (UniProt O14763). The experiment is described as follows: SPR.
Experiment [9] addresses Human TRAIL-R2-Fc D148A (human) (UniProt O14763). As to the kind of experiment: SPR.
The target in experiment [10] is human TRAIL-R2-Fc K155A (human) (UniProt O14763). As to the kind of experiment: SPR.
Experiment [11] concerns the target human TRAIL-R2-Fc M152A/R154A/K155A (human) (UniProt O14763). As to the kind of experiment: SPR.
In experiment [12] the target is human TRAIL-R2-Fc L110A/L114A (human) (UniProt O14763). As to the kind of experiment: SPR.
Experiment [13] addresses human TRAIL-R2-Fc E78A/D109A (human) (UniProt O14763). The experiment is described as follows: SPR.
The target in experiment [14] is human TRAIL-R2-Fc M152A (human) (UniProt O14763). The experiment is described as follows: SPR.
The target of experiment [15] is human TRAIL-R2-Fc R154A (human) (UniProt O14763). As to the kind of experiment: SPR.
Experiment [16] has as its target human TRAIL-R2-Fc P150A (human) (UniProt O14763). As to the kind of experiment: SPR.
Experiment [17] addresses TRAIL-R1 ECD (Homo sapiens) (UniProt O00220). As to the kind of experiment: SPR. Conditions: cited from earlier work.
For experiment [18], the target named is TRAIL-R2 ECD (Homo sapiens) (UniProt O14763). As to the kind of experiment: SPR. Conditions: cited from earlier work.

Chain of Human CD155-Fc fusion protein (human) (P15151 21-343): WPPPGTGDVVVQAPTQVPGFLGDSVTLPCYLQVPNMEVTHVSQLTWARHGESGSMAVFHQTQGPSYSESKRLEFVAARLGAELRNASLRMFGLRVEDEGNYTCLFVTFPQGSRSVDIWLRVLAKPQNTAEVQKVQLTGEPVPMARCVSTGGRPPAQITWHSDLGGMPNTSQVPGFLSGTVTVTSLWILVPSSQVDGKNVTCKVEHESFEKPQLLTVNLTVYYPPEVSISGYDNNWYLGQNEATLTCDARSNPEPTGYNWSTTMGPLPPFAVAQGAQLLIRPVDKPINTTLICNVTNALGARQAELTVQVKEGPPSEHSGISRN
Chain of TRAIL-R1 ECD (Homo sapiens) (O00220 24-239): as the sequence (O00220 24-239) above

In experiment [1], “Pre-formed UL141–TRAIL-R2 complex (from UniProt Q6RJQ3;O14763)” had a K Dave of 2 nM, a Kd of 2.19 nM, a koff of 0.000333 s⁻¹ and a kon of 152000 M⁻¹ s⁻¹.

Consider “Recombinant UL141 ectodomain (soluble, released from the Fc fusion) (from UniProt Q6RJQ3 37-278) (domain or fragment)”, for which the stoichiometry N in [2] turned out to be 2. Besides, the KDeq in experiment [3] came out at 2.27 µM. For the same substance, the Kd in experiment [3] is 2330 nM; in experiment [1], 1.97 nM; in experiment [4], 15 nM; in [5], 630 nM; in [7], 43 nM; in experiment [8] it was 5.96 nM. Also, the Kd in experiment [9] is 55 nM. Further, the koff in experiment [3] came to 0.014 s⁻¹; in experiment [1] it was 0.000346 s⁻¹; in [8], 7.21e-05 s⁻¹. In addition, the kon in experiment [3] turned out to be 6020 M⁻¹ s⁻¹; in experiment [1], 176000 M⁻¹ s⁻¹; in experiment [8], 12100 M⁻¹ s⁻¹. Besides, the K Dave in experiment [1] amounted to 2 nM. This substance also gave a fold reduction of binding affinity against wild type in experiment [6] of 10 fold.

On to “HCMV UL141 ectodomain, soluble (released from the thrombin-cleavable Fc fusion) (from UniProt Q6RJQ3 37-278) (domain or fragment)”, for which the Kd turned out to be 7.74 nM in experiment [10]; 15.5 nM in experiment [4]; 7.39 nM in experiment [11]; 42.7 nM in [12]; 630 nM in experiment [5]; 60.4 nM in experiment [13]. Further, the Kd in [14] worked out at 7.49 nM; in [15], 6.26 nM; in experiment [16], 8.32 nM; in experiment [9], 55.3 nM. Moreover, the off-rate constant (koff) in experiment [10] worked out at 0.00038 s⁻¹; in [4], 0.00048 s⁻¹; in experiment [11] it was 0.00027 s⁻¹; in [12], 0.00064 s⁻¹; in [5], 0.00566 s⁻¹; in experiment [13], 0.00151 s⁻¹. Further, the koff in experiment [14] worked out at 0.000382 s⁻¹; in [15], 0.000243 s⁻¹; in experiment [16], 0.000391 s⁻¹; in experiment [9], 0.0013 s⁻¹. Also, the kon in [10] worked out at 49100 M⁻¹ s⁻¹; in experiment [4], 31000 M⁻¹ s⁻¹; in experiment [11], 36500 M⁻¹ s⁻¹; in experiment [12] it was 15000 M⁻¹ s⁻¹; in experiment [5] it was 8980 M⁻¹ s⁻¹; in [13] it was 25000 M⁻¹ s⁻¹. The kon is 51000 M⁻¹ s⁻¹ in experiment [14], 38800 M⁻¹ s⁻¹ in experiment [15], 47000 M⁻¹ s⁻¹ in experiment [16] and 23500 M⁻¹ s⁻¹ in experiment [9].

Take UL141 (from UniProt Q6RJQ3): the results for the Kd in experiment [17] and in [18] were 2300 nM and 6 nM, respectively.

A word on the Kd: it is the concentration at which binding is half-saturated. In general, koff refers to a measure of how fast the partners let go of each other. A low value points to slow dissociation. What is called kon is the rate constant with which the complex forms. A lower kon goes with slow association. As usually defined, the stoichiometry N is the number of molecules, sites or subunits per partner or assembly.
